{"source": "patent US20090269346A1", "about": "(RAPTOR PHARMACEUTICAL, published 2009)", "binders": {"B1": {"name": "wild-type RAP d3 (ligand)", "chain": "LDRLRRVSHQGYSTEAEFEEPRVIDLWDLEQSANLTDKELEAFREELKHFEAKIEKHNHYQKQLEIAHEKLRHAESVGDGERVSRSREKHALLEGRTKELGYTVKKHLQDLSGRISRAR", "notes": "expressed in E. coli from pET30(+)a; not shown: vector-encoded N-terminal tags of pET30(+)a (hexahistidine and S-peptide, as stated for the CR constructs)"}}, "key": {"ST14 CR12": {"biological_target": "T1, ST14 CR12 (human, UniProt Q9Y5Y6 452-524)", "T1 construct": "also called MAT CR12; Mat CR12", "T1 sequence": "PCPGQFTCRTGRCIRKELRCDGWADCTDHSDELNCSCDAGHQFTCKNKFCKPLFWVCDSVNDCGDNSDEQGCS", "assay": "solid-phase binding assay, ligand at 80 nM on coated CR proteins, blank-corrected absorbance", "method": "(§1) Solid phase binding assays-Purified, refolded CR protein (1 μg) was bound to Nunc Maxisorp™ 96-well plates in TBS pH 8 supplemented with 5 mM CaCl₂ (TBSC) overnight at 4° C. Wells were washed with TBSC and then blocked with TBSC containing 2% bovine serum albumin (BSA). RAP ligands were then incubated with the immobilized receptor at a range of concentrations for 2 hours in the above blocking buffer supplemented with 0.05% Tween-20 at room temperature. Control wells contained no added ligand. As an additional control, to determine whether the absence of calcium affected binding, 10 mM EGTA was included in the incubation medium for some samples. Wells were washed with TBSTC and bound ligands detected with polyclonal anti-RAP (BP41/42, 1:1,000, BioMarin). Excess primary antibody was removed and wells washed before incubation with the secondary antibody, HRP-conjugated goat anti rabbit IgG (Bio-Rad). After washing, TMB substrate solutions (Bio-Rad) were added to detect HRP. Color development was stopped with 1N HCl. Absorption at 450 nm was measured with a microplate spectrophotometer (Molecular Devices). Data were plotted and Kd values derived by non-linear regression with the assumption of single-site binding (GraphPad Prism).\nBinding experiments were also carried out comparing the binding of RAP d3 and RAPv2A d3 to an array of CR pairs (FIG. 9), similar to the experiment depicted in FIG. 5. For these experiments, RAP d3 and RAPv2A d3 (or RAPv2 d3) were each incubated at 80 nM concentrations with LRP1 CR3-5, LRP6 CR12, LRP6 CR23, LRP6 CR1-3, LRP2 CR89, LRP2 CR2728, LRP2 CR3031, LRP2 CR3435, LRP2 CR34-36, VLDLR CR78, VLDLR CR6-8, MAT CR12, MAT CR23 and MAT CR34. Samples were tested twice, in duplicate, and values combined. Means and standard deviations were then calculated. Blank values obtained from wells incubated in the absence of ligand were used to correct absorbance data."}, "LRP2 CR89 V1047D": {"biological_target": "T2, LRP2 CR89 V1047D (human, UniProt P98164 1022-1105)", "T2 construct": "also called YDWR", "T2 chain": "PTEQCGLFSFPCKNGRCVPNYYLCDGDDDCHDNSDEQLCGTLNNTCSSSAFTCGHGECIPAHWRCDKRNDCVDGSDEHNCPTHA", "assay": "solid-phase assay, coated CR protein, anti-RAP, OD450", "method": "as §1\n(§2) One premise of this work was that amino acids at A, C, A′ and C′ within the calcium-binding loops of a CR pair were key determinants of binding affinity for RAP and would be similarly important for binding of RAP variants. To test this idea, we prepared mutants of LRP2 CR89 in which the native, non-canonical residues at these positions were sequentially substituted with the non-native, canonical residues. As defined above, the A, C, A′, C′ string for LRP2 CR89 is YVWR. Mutants included LRP2 CR89 Y1042W (WVWR), LRP2 CR89 V1047D (YDWR), LRP2 CR89 R1088D (YVWD), LRP2 CR89 V1047D R1088D (YDWD), LRP2 CR89 Y1042W V1047D R1088D (WDWD), LRP2 CR89 Y1042W V1047D (WDWR), LRP2 CR89 Y1042W R1088D (WVWD). Binding to both RAP d3 and RAPv2A d3 were measured for each LRP2 CR89 mutant by solid-phase assay. Samples were tested in triplicate. OD values from uncoated wells, receptor-coated wells incubated with buffer alone, and uncoated wells incubated with the highest ligand concentration all gave similar values for all conditions tested."}, "LRP2 CR89": {"biological_target": "T3, LRP2 CR89 (human, UniProt P98164 1025-1102)", "T3 construct": "domain: CR8 and CR9; also called YVWR; L2 CR89; not shown: N-terminal hexahistidine and S-peptide from pET30(+)a", "T3 sequence (P98164 1025-1102)": "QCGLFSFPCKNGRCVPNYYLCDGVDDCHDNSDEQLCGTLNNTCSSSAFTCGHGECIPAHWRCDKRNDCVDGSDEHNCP", "assay": "solid-phase assay, coated CR protein, anti-RAP, OD450", "method": "as §1, §2"}, "[1]": {"biological_target": "T4, LRP2 CR89 Y1042W V1047D R1088D (human, UniProt P98164 1022-1105)", "T4 construct": "also called WDWD", "T4 chain": "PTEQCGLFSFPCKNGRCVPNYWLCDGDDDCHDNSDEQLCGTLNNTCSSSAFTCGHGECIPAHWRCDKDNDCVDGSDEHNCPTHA", "assay": "solid-phase assay, coated CR protein, anti-RAP, OD450", "method": "as §1, §2"}, "LRP2 CR89 R1088D": {"biological_target": "T5, LRP2 CR89 R1088D (human, UniProt P98164 1022-1105)", "T5 construct": "also called YVWD", "assay": "solid-phase assay, coated CR protein, anti-RAP, OD450", "method": "as §1, §2"}, "LRP2 CR89 Y1042W": {"biological_target": "T6, LRP2 CR89 Y1042W (human, UniProt P98164 1022-1105)", "T6 construct": "also called WVWR", "T6 chain": "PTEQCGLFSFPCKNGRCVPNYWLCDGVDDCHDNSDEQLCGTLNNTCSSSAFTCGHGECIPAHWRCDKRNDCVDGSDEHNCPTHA", "assay": "solid-phase assay, coated CR protein, anti-RAP, OD450", "method": "as §1, §2"}, "LRP2 CR89 Y1042W R1088D": {"biological_target": "T7, LRP2 CR89 Y1042W R1088D (human, UniProt P98164 1022-1105)", "T7 construct": "also called WVWD", "T7 chain": "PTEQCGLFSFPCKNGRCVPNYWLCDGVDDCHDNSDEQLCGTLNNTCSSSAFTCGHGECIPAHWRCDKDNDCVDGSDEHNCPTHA", "assay": "solid-phase assay, coated CR protein, anti-RAP, OD450", "method": "as §1, §2"}, "LRP2 CR89 V1047D R1088D": {"biological_target": "T8, LRP2 CR89 V1047D R1088D (human, UniProt P98164 1022-1105)", "T8 construct": "also called YDWD", "T8 chain": "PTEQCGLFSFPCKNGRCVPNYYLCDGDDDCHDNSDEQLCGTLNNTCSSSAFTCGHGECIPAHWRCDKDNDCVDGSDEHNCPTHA", "assay": "solid-phase assay, coated CR protein, anti-RAP, OD450", "method": "as §1, §2"}, "LRP1 CR3-5": {"biological_target": "T9, LRP1 CR3-5 (human)", "T9 construct": "range 852-973; Amplified from human cDNA; also called L1 CR3-5", "T9 sequence (Q07954 852-973)": "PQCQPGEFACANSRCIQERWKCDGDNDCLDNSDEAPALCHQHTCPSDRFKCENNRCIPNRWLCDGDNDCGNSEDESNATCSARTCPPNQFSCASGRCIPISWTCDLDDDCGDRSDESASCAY", "assay": "solid-phase assay, coated CR protein, anti-RAP, OD450; apparent Kd repeated from Table 1; unit inferred, nM taken from paragraph 284"}}, "data": [{"binder": "B1", "values": [{"measurement": "binding result", "setting": "ST14 CR12", "result": "no binding (tested: 80 nM)"}, {"measurement": "% max bind", "setting": "LRP2 CR89 V1047D", "result": 6, "unit": "%"}, {"measurement": "% max bind", "setting": "LRP2 CR89", "result": 7, "unit": "%"}, {"measurement": "% max bind", "setting": "[1]", "result": 15, "unit": "%"}, {"measurement": "% max bind", "setting": "LRP2 CR89 R1088D", "result": 7, "unit": "%"}, {"measurement": "% max bind", "setting": "LRP2 CR89 Y1042W", "result": 9, "unit": "%"}, {"measurement": "% max bind", "setting": "LRP2 CR89 Y1042W R1088D", "result": 16, "unit": "%"}, {"measurement": "% max bind", "setting": "LRP2 CR89 V1047D R1088D", "result": 6, "unit": "%"}, {"measurement": "Kd", "setting": "LRP1 CR3-5", "result": 16, "unit": "nM"}]}]}
